The numbers were not newly measured in paper PMC11668491, which cites them from elsewhere.

In this data set the target is UBC2 (Saccharomyces cerevisiae) (UniProt P06104).

pKd: −log10 of the molar value.

UniProt P06104, sequence (P06104 whole entry): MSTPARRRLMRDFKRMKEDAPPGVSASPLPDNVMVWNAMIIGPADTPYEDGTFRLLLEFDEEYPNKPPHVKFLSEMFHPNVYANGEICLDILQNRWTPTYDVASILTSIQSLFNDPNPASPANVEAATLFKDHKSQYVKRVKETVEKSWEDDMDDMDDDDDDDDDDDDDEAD

On to UBR1 U2BR (from UniProt P19812), for which the pKd was 6.85.
